Experimental data taken from IntAct's records for PubMed 23850456.

B1: Gremlin-2 (Mus musculus), O88273 (parent)
chain: MFWKLSLTLLLVAVLVKVAETRKNRPAGAIPSPYKDGSSNNSERWHHQIKEVLASSQEALVVTERKYLKSDWCKTQPLRQTVSEEGCRSRTILNRFCYGQCNSFYIPRHVKKEEDSFQSCAFCKPQRVTSVIVELECPGLDPPFRIKKIQKVKHCRCMSVNLSDSDKQ
partner: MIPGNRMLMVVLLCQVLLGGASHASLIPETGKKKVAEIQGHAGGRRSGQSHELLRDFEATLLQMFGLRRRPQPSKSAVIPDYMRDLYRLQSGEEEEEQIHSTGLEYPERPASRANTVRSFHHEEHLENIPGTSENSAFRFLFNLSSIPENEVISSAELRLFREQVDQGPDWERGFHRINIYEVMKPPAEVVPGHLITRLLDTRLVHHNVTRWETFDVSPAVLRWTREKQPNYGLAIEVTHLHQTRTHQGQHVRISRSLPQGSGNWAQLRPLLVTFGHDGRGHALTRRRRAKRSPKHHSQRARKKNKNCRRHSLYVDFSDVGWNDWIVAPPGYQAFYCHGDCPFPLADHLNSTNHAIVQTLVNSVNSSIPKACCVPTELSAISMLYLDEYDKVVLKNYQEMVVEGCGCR
B2: Gremlin-2 (Mus musculus), O88273 (parent)
chain: B1 chain
partner: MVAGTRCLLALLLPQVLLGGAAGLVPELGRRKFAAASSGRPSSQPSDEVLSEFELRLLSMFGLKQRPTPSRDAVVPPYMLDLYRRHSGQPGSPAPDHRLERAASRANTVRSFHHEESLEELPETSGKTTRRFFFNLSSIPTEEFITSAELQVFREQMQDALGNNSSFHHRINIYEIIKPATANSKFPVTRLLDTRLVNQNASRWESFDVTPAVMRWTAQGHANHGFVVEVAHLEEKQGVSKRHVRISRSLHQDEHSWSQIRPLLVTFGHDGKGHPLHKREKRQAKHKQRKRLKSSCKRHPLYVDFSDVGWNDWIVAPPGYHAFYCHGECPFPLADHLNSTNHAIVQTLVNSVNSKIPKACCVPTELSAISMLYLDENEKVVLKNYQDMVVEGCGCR

Variants of: B1
Conditions: with bmp4_human BMP4, P12644

Effect of a mutation on the interaction, decreasing interaction strength:
MFWKLSLTLLLVAVLVKVAETRKNRPAGAIPSPYKDGSSNNSERWHHQIKEVLASSQEALVVTERKYLKSDWCKTQPLRQTVSEEGCRSRTILNRFCYGQCNSAYIPRHVKKEEDSFQSCAFCKPQRVTSVIVELECPGLDPPFRIKKIQKVKHCRCMSVNLSDSDKQ [F104A]
MFWKLSLTLLLVAVLVKVAETRKNRPAGAIPSPYKDGSSNNSERWHHQIKEVLASSQEALVVTERKYLKSDWCKTQPLRQTVSEEGCRSRTILNRFCAGQCNSFYIPRHVKKEEDSFQSCAFCKPQRVTSVIVELECPGLDPPFRIKKIQKVKHCRCMSVNLSDSDKQ [Y98A]
MFWKLSLTLLLVAVLVKVAETRKNRPAGAIPSPYKDGSSNNSERWHHQIKEVLASSQEALVVTERKYLKSDWCKTQPLRQTVSEEGCRSRTILNRFCYGQCNSFYIPRHVKKEEDSAQSCAFCKPQRVTSVIVELECPGLDPPFRIKKIQKVKHCRCMSVNLSDSDKQ [F117A]
MFWKLSLTLLLVAVLVKVAETRKNRPAGAIPSPYKDGSSNNSERWHHQIKEVLASSQEALVVTERKYLKSDACKTQPLRQTVSEEGCRSRTILNRFCYGQCNSFYIPRHVKKEEDSFQSCAFCKPQRVTSVIVELECPGLDPPFRIKKIQKVKHCRCMSVNLSDSDKQ [W72A]
MFWKLSLTLLLVAVLVKVAETRKNRPAGAIPSPYKDGSSNNSERWHHQIKEVLASSQEALVVTERKYLKSDWCKTQPLRQTVSEEGCRSRTILNRFCYGQCNSFAIPRHVKKEEDSFQSCAFCKPQRVTSVIVELECPGLDPPFRIKKIQKVKHCRCMSVNLSDSDKQ [Y105A]

Variants of: B2
Conditions: with bmp2_human BMP2, P12643

Effect of a mutation on the interaction, decreasing interaction strength:
MFWKLSLTLLLVAVLVKVAETRKNRPAGAIPSPYKDGSSNNSERWHHQIKEVLASSQEALVVTERKYLKSDWCKTQPLRQTVSEEGCRSRTILNRFCYGQCNSFYIPRHVKKEEDSAQSCAFCKPQRVTSVIVELECPGLDPPFRIKKIQKVKHCRCMSVNLSDSDKQ [F117A]
MFWKLSLTLLLVAVLVKVAETRKNRPAGAIPSPYKDGSSNNSERWHHQIKEVLASSQEALVVTERKYLKSDWCKTQPLRQTVSEEGCRSRTILNRFCAGQCNSFYIPRHVKKEEDSFQSCAFCKPQRVTSVIVELECPGLDPPFRIKKIQKVKHCRCMSVNLSDSDKQ [Y98A]
MFWKLSLTLLLVAVLVKVAETRKNRPAGAIPSPYKDGSSNNSERWHHQIKEVLASSQEALVVTERKYLKSDWCKTQPLRQTVSEEGCRSRTILNRFCYGQCNSFAIPRHVKKEEDSFQSCAFCKPQRVTSVIVELECPGLDPPFRIKKIQKVKHCRCMSVNLSDSDKQ [Y105A]
MFWKLSLTLLLVAVLVKVAETRKNRPAGAIPSPYKDGSSNNSERWHHQIKEVLASSQEALVVTERKYLKSDACKTQPLRQTVSEEGCRSRTILNRFCYGQCNSFYIPRHVKKEEDSFQSCAFCKPQRVTSVIVELECPGLDPPFRIKKIQKVKHCRCMSVNLSDSDKQ [W72A]
MFWKLSLTLLLVAVLVKVAETRKNRPAGAIPSPYKDGSSNNSERWHHQIKEVLASSQEALVVTERKYLKSDWCKTQPLRQTVSEEGCRSRTILNRFCYGQCNSAYIPRHVKKEEDSFQSCAFCKPQRVTSVIVELECPGLDPPFRIKKIQKVKHCRCMSVNLSDSDKQ [F104A]
